Test in all cases: BLI, biotinylated S1 variant on streptavidin sensor
Test [1] has as its target T1, SARS-COV2 突变株 S1 Omicron BA.2 (SARS-CoV-2 Omicron BA.2, UniProt P0DTC2 16-685).
T1 construct: domain: S1; also called Omicron BA.2的S1; Omicron突变体

For test [2], the target named is T2, SARS-COV2 突变株 S1 Alpha B.1.1.7 (SARS-CoV-2 Alpha B.1.1.7, UniProt P0DTC2 16-685).
T2 construct: domain: S1; also called Alpha B.1.1.7的S1; Alpha突变体

In test [3] the target is T3, SARS-COV2 突变株 S1 Delta B.1.617.2 (SARS-CoV-2 Delta B.1.617.2, UniProt P0DTC2 16-685).
T3 construct: domain: S1; also called Delta B.1.617.2的S1; Delta突变体

B1: 纳米抗体Nb-H6 (VHH)
VHH: QLVESGGGLVQAGDSLRLSCAASERALSSFHMGWFRQAPGKQRAFVAAIKWRDGTTYYADSVKGRFTISRDNAKNTVYLQMNSLEPEDTAVYYCYYRGRWGTYWGQGTQVTVSS
For the molecule B1, the figures for the Kd in test [1], in test [2] and in test [3] were 200 nM, 1080 nM and 1120 nM, respectively.
